Values quoted from earlier work in article PMC3076733.

Biological target: Obscurin Rho-GEF (Homo sapiens) (UniProt Q5VST9)
Chain of UniProt Q5VST9 (Q5VST9 5700-5884): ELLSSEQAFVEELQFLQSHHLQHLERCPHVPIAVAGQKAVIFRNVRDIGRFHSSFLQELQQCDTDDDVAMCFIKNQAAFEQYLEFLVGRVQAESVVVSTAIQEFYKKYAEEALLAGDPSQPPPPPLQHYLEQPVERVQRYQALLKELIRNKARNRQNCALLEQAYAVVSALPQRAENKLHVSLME

RanBP9 (from UniProt Q96S59)
Kd: 2 µM
